The record followed here is US20190324032A1 (University of California, published 2019).

The target of test [1] is T1, CLOCK PAS-B domain (residues 261-395) site-specifically labeled with FAM at its N-terminus (human, UniProt O15516 261-395, FAM (fluorescein) at the N-terminus, attached with Sortase A from FAM-LPETGG onto the N-terminal glycine).
T1 construct: Sortase ligation leaves residues of the FAM-LPETGG peptide in front of the N-terminal glycine; also called labeled CLOCK PAS-B; CLOCK PAS-B probe
T1 sequence: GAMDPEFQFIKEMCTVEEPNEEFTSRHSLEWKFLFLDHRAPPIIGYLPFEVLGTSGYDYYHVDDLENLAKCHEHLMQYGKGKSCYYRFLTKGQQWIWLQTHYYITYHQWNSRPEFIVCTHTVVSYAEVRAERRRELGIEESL
Kind of test: fluorescence polarization. A general note: In fluorescence polarisation assays a small probe gives low polarisation when free and higher when bound to something large.

For test [2], the target named is T2, His6-tagged mouse CRY1 PHR (photolyase homology region, amino acids 1-491) (mouse, UniProt P97784 1-491).
T2 construct: Expressed in Sf9 cells; also called wild-type CRY1 PHR; not shown: N-terminal His6 tag / vector residues
T2 sequence: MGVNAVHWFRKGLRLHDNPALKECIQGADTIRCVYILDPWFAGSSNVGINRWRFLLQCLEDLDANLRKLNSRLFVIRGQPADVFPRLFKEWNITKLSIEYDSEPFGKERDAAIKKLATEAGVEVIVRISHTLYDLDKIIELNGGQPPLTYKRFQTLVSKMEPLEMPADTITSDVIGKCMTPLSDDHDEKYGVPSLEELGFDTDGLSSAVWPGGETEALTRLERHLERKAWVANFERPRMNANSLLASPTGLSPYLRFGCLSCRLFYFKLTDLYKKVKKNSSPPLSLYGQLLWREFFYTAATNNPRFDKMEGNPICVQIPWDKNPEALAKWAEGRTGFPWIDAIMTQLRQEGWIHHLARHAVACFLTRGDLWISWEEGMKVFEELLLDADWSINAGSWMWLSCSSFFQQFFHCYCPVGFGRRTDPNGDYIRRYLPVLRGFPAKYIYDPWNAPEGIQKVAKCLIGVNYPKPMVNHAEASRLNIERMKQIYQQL
Kind of test: SEC of CRY1 PHR with preformed CLOCK:BMAL1 PAS-B dimer. On the procedure: (§1) For analysis of complex formation by size-exclusion chromatography (SEC), purified proteins were injected on a Superdex 200 10/300 GL or Superdex 75 10/300 GL analytical column at 10-50 μM (˜250 μL, 1:1 molar ratio) in 20 mM HEPES pH 7.5, 125 mM NaCl, 5% glycerol and 2 mM TCEP. Proteins were incubated for ˜30 min. or overnight and analyzed by SEC. All size-exclusion columns were calibrated with a low-molecular-weight gel filtration standards kit (GE Healthcare Life Sciences). The content of each peak was evaluated by SDS-PAGE and Coomassie staining.

Test [3] has as its target T3, CRY1 PHR R109Q (mouse, UniProt P97784 1-491).
T3 construct: also called CRY1 PHR R109Q mutant; not shown: N-terminal His6 tag / vector residues
T3 sequence: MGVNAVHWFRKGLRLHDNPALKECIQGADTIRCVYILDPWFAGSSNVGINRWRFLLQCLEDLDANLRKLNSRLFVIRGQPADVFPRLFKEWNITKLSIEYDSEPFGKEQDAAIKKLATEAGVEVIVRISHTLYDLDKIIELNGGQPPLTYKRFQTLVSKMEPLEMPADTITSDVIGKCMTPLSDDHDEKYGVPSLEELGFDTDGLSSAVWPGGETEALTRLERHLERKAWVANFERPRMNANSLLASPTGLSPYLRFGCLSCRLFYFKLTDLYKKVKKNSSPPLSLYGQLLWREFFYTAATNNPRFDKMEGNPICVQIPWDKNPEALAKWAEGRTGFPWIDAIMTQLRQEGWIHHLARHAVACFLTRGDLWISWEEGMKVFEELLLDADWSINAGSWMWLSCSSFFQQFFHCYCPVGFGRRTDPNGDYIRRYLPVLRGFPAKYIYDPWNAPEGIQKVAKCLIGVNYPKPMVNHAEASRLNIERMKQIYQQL
Kind of test: size exclusion chromatography. As for the experimental part: as §1
For orientation: Size exclusion chromatography separates by hydrodynamic size, large species first.

In test [4] the target is T4, CRY1 PHR P39A (mouse, UniProt P97784 1-491).
T4 construct: also called CRY1 PHR P39A mutant; not shown: N-terminal His6 tag / vector residues
T4 sequence: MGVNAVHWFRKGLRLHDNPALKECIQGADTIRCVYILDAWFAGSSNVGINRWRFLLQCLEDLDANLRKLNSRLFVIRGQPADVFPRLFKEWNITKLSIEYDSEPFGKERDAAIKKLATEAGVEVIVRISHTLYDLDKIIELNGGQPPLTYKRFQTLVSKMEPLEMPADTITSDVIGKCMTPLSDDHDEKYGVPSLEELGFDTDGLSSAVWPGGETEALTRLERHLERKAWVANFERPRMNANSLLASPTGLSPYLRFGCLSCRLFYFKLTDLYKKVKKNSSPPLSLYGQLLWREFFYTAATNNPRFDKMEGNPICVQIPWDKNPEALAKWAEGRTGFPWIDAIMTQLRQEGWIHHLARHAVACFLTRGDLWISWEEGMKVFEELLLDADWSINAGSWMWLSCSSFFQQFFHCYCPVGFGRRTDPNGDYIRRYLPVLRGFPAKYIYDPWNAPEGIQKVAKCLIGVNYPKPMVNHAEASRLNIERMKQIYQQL
Kind of test: size exclusion chromatography. As for the experimental part: as §1

In test [5] the target is mouse BMAL1 PAS-B (residues 329-441) (mouse, UniProt Q9WTL8 329-441). The experiment in a line: size exclusion chromatography on Superdex 75. On the procedure: as §1
The target in test [6] is T2, His6-tagged mouse CRY1 PHR (photolyase …). The experiment in a line: GST pull-down. As for the experimental part:
Soluble proteins were purified using GS4B resin (GE Healthcare). GST-tagged proteins were eluted with 10 mM glutathione and peak elution was desalted into 20 mM HEPES pH 7.5, 125 mM NaCl, 5% glycerol and 2 mM TCEP. […] After rotation at 4° C. overnight, reactions were washed 3 times with the above buffer and eluted with 6× SDS. Samples were boiled for ˜5 min. and loaded on an SDS-PAGE gel for visualization by Coomassie stain.

Test [7] has the same target. The experiment in a line: size exclusion chromatography. On the procedure: as §1

mouse BMAL1 PAS-B (residues 329-441), sequence (Q9WTL8 329-441): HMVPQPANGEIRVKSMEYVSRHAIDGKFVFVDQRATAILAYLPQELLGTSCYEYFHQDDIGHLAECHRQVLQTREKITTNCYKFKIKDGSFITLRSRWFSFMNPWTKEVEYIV

B1: CRY1 PHR (residues 1-491) after cleavage of the His6 tag, with residual vector sequence (Example 6) (other)
chain: GAMDPEFMGVNAVHWFRKGLRLHDNPALKECIQGADTIRCVYILDPWFAGSSNVGINRWRFLLQCLEDLDANLRKLNSRLFVIRGQPADVFPRLFKEWNITKLSIEYDSEPFGKERDAAIKKLATEAGVEVIVRISHTLYDLDKIIELNGGQPPLTYKRFQTLVSKMEPLEMPADTITSDVIGKCMTPLSDDHDEKYGVPSLEELGFDTDGLSSAVWPGGETEALTRLERHLERKAWVANFERPRMNANSLLASPTGLSPYLRFGCLSCRLFYFKLTDLYKKVKKNSSPPLSLYGQLLWREFFYTAATNNPRFDKMEGNPICVQIPWDKNPEALAKWAEGRTGFPWIDAIMTQLRQEGWIHHLARHAVACFLTRGDLWISWEEGMKVFEELLLDADWSINAGSWMWLSCSSFFQQFFHCYCPVGFGRRTDPNGDYIRRYLPVLRGFPAKYIYDPWNAPEGIQKVAKCLIGVNYPKPMVNHAEASRLNIERMKQIYQQL
For the molecule B1, in test [1], the binding result was “binds”.

B2: mouse CLOCK PAS-B (residues 261-395) (other)
chain: QFIKEMCTVEEPNEEFTSRHSLEWKFLFLDHRAPPIIGYLPFEVLGTSGYDYYHVDDLENLAKCHEHLMQYGKGKSCYYRFLTKGQQWIWLQTHYYITYHQWNSRPEFIVCTHTVVSYAEVRAERRRELGIEESL
notes: also called CLOCK PAS-B domain; CLOCK PAS-B WT
On to B2, for which the binding result is given as “binds” in test [2]; “no binding (tested: 10-50 µM, 1:1 molar ratio)” in test [3]; “no binding (tested: 10-50 µM, 1:1 molar ratio)” in test [4].

B3: CLOCK PAS-B V315R (other)
chain: QFIKEMCTVEEPNEEFTSRHSLEWKFLFLDHRAPPIIGYLPFEVLGTSGYDYYHRDDLENLAKCHEHLMQYGKGKSCYYRFLTKGQQWIWLQTHYYITYHQWNSRPEFIVCTHTVVSYAEVRAERRRELGIEESL
notes: also called CLOCK PAS-B V315R mutant
As to B3, in test [5], the binding result is “no binding (tested: incubated 1:1)”.

B4: GST-CLOCK PAS-B W362A (other, not shown: a dimerising Fc or GST; small tags and cut ends)
chain: QFIKEMCTVEEPNEEFTSRHSLEWKFLFLDHRAPPIIGYLPFEVLGTSGYDYYHVDDLENLAKCHEHLMQYGKGKSCYYRFLTKGQQWIWLQTHYYITYHQANSRPEFIVCTHTVVSYAEVRAERRRELGIEESL
Take B4: the binding result in test [6] was “no binding”.

B5: CLOCK PAS-B H360Y (other)
chain: QFIKEMCTVEEPNEEFTSRHSLEWKFLFLDHRAPPIIGYLPFEVLGTSGYDYYHVDDLENLAKCHEHLMQYGKGKSCYYRFLTKGQQWIWLQTHYYITYYQWNSRPEFIVCTHTVVSYAEVRAERRRELGIEESL
notes: also called CLOCK PAS-B H360Y mutant
As for B5, the binding result in test [7] is recorded as “no binding (tested: 10-50 µM, 1:1 molar ratio)”.
